Columns and labels:
porcine CSF1R (porcine) = porcine CSF1R (porcine) (UniProt K9IVS4); experiment: cell-based or functional assay
chicken CSF1R (chicken) = experiment: cell-based or functional assay

recombinant porcine CSF1 (from UniProt A0A287BPE2 36-189) (ligand)
survival/proliferation of BaF/3 cells expressing porcine CSF1R (Cell TiterGlo), EC50 (porcine CSF1R (porcine)): 0.03 µg/mL

recombinant human CSF1 (Sigma 6518) (from UniProt P09603 33-190) (ligand)
survival/proliferation of BaF/3 cells expressing porcine CSF1R (Cell TiterGlo), EC50 (porcine CSF1R (porcine)): 0.03 µg/mL

recombinant chicken CSF1 (active fragment of chicken CSF-1, expressed in E. coli from pTLW54, refolded) (ligand)
survival/proliferation of BaF/3 cells expressing chicken CSF1R (Cell TiterGlo), EC50 (chicken CSF1R (chicken)): 0.02 µg/mL

From patent publication US20170002051A1
